Data taken from patent US20160304622A1 (GENEFRONTIER, published 2016).

Columns and labels:
Test in all cases: immunoblotting after reducing SDS-PAGE
[1] = target: T1, recombinant human ADAMTS1 (R&D Systems) (human, UniProt Q9UHI8 253-967, limits assumed)
T1 sequence (looked up): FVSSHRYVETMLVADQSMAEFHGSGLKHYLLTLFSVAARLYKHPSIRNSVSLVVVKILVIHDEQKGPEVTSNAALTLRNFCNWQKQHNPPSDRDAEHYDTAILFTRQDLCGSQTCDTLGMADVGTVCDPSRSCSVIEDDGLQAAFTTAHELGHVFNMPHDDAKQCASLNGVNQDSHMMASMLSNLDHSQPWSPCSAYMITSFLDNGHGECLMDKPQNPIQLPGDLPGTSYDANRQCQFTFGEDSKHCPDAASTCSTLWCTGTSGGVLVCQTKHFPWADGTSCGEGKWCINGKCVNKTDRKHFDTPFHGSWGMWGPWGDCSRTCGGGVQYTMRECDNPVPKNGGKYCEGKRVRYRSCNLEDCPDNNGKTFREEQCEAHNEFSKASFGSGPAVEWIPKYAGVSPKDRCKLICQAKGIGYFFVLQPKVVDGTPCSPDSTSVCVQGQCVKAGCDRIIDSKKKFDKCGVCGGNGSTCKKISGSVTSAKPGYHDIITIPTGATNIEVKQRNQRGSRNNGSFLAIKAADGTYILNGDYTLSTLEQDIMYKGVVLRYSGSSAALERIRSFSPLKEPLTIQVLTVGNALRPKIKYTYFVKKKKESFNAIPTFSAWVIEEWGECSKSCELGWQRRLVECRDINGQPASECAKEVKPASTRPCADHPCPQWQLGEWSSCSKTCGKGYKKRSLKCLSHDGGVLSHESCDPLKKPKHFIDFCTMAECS
Source text: (§1) Recombinant proteins of human ADAMTS1 (R&D Systems), ADAMTS4, ADAMTS5 (R&D Systems), ADAMTS15 (R&D Systems), ADAM10 (R&D Systems), ADAM12 (Mochida Pharmaceutical Co., Ltd., Tokyo, Japan), ADAM17 (R&D Systems) and MMP-13 (Millipore, Billerica, Mass.) and purified human MMP-1, MMP-2, MMP-3 and MMP-9 (Daiichi Fine Chemical, Co., Ltd., Toyama, Japan) were subjected to sodium dodecyl sulfate-polyacrylamide gel electrophoresis (SDS-PAGE) under reducing conditions, and the samples resolved on the gels were transferred onto polyvinylidene difluoride (PVDF) membranes. […] After washing with phosphate buffered saline containing 0.1% Tween 20, the membranes were reacted with horseradish peroxidase-conjugated secondary antibody against human IgG (Invitrogen, Carlsbad, Calif.) for 1 h at room temperature. A chemiluminescence reagent (Pierce ECL western blotting substrate; Thermo Fisher Scientific, Waltham, Mass.) was used to make the labeled protein bands visible. All the samples were also examined on silver-stained gels, which were prepared by silver stain kit (Cosmo Bio Co., Ltd, […].).

[2] = target: T2, recombinant human ADAM12 (Mochida Pharmaceutical Co., Ltd.) (human, UniProt O43184 208-708, limits assumed)
T2 sequence (looked up): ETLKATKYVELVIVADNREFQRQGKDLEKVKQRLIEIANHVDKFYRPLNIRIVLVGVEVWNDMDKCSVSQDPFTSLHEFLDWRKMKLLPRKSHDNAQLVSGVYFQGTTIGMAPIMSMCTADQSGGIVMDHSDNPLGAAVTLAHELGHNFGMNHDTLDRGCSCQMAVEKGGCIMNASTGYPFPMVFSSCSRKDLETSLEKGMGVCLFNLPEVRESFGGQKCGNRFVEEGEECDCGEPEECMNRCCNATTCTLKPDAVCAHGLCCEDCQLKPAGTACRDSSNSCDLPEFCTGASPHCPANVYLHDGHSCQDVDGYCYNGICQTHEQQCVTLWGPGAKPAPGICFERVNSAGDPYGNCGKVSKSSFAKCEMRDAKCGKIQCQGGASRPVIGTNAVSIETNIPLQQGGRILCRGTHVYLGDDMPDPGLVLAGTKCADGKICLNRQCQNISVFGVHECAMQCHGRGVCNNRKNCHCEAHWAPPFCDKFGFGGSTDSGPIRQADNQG
Source text: as §1

[3] = target: recombinant human ADAM17 (R&D Systems) (human, UniProt P78536 215-671, limits assumed)
Source text: as §1

[4] = target: T3, purified human MMP-2 (Daiichi Fine Chemical) (human, UniProt P08253 30-660, limits assumed)
T3 sequence (looked up): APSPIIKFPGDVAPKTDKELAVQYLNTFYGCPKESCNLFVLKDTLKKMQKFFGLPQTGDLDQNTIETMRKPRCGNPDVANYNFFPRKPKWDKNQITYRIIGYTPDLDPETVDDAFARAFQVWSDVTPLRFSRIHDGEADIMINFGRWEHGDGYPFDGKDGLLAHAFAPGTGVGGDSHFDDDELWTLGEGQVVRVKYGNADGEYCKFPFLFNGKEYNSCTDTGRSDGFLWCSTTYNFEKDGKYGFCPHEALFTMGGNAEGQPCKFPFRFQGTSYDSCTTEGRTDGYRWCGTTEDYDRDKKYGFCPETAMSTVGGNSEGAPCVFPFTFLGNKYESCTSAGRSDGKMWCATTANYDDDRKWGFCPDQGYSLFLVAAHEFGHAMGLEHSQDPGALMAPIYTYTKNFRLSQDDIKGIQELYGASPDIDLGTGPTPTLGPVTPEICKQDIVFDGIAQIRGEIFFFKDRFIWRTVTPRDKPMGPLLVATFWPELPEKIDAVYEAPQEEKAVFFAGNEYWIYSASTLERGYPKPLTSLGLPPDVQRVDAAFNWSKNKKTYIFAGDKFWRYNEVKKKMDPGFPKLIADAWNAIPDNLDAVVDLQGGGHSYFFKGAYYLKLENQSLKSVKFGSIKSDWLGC
Source text: as §1

[5] = target: recombinant human MMP-13 (Millipore) (human, UniProt P45452 20-471, limits assumed)
Source text: as §1

Measured: binding result

recombinant human ADAM17 (R&D Systems), sequence (P78536 215-671 limits assumed): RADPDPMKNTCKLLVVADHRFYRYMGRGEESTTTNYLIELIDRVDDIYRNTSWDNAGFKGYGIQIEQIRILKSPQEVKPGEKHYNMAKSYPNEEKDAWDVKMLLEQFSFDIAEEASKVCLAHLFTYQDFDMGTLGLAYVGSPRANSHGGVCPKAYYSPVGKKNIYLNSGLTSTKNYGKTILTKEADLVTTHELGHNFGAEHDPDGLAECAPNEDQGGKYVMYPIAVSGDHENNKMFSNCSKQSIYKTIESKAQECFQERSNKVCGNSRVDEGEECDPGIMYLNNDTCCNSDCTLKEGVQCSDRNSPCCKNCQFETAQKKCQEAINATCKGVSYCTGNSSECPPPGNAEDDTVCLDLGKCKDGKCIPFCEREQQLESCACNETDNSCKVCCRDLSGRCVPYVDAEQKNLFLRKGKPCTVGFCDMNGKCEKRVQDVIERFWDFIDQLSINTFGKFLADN

B1: Fab of clone 237-53 (Fab, V domains shown)
VH: QVQLVQSGAEVKKPGSSVKVSCKASGGTFSSFAISWVRQAPGQGLEWMGGIFPIFGQANYAQKFQGRVTITADESTSTAYMELSSLRSEDTAVYYCARFSDWWEWQMDYWGQGTLVTVSS
VL: DIVMTQSPDSLAVSLGERATINCRSSQSILYSSNNNYLAWYQQKPGQPPKLLIHTASARESGVPDRFSGSGSGTDFTLTISSLQAEDVAVYYCQQYYSVSITFGQGTKVEIKR
no binding (tested: 5 µg/ml): [1] | [2] | [3] | [4] | [5]
